Assay results: patent EP4669337B1 (ATOPIA THERAPEUTICS SA, dated 2025)

B1: polypeptide of SEQ ID NO:31 (a specific polypeptide of SEQ ID NO: 10, s1m1 family VacA-derived polypeptide) (other)
chain: AFFTTVIIPAIVGGIATGTAVGTVSGLLGWGLKQAEEANKTPDKPDKVWRIQAGKGFNEFPNKEYDLYKSLLSSKIDGGWDWGNAATHYWIKGGQWNKLEVDMKDAVGTYKLSGLRNFTGGDLDVNMQKATLRLGQFNGNSFTSYKDSADRTTRVDFNAKNILIDNFLEINNRVGSGAGRKASSTVLTLQASEGITSSKNAEISLYDGATLNLASNSVKLNGNVWMGRLQYVGAYLAPSYSTINTSKVTGEVNFNHLTVGDHNAAQAGIIASNKTHIGTLDLWQSAGLNIIAPPGGKDTVVNIDRINTKADGTIKVGGFKASLTTNAAHLNIGKGGVNLSNQASGRTLLVENLTGNITVDGPLRVNNQVGGYALAGSSANFEFKAGVDTKNGTATFNNDISLGRFVNLKVDAHTANFKGIDTGNGGFNTLDFSGVTNKVNINKLITASTNVAVKNFNINELIVKTNGVSVGEYTHFSEDIGSQSRINTVRLETGTRSIFSGGVKFKSGEKLVIDEFYYSPWNYFDARNIKNVEITRKFASSTPENPWGTSKLMFNNLTLGQNAVMDYSQFSNLTIQGDFINNQGTINYLVRGGKVATLNVGNAAAMMFNNDIDSATGFYKPLIKINSAQDLIKNTEHVLLKAKIIGYGNVSTGTNGISNVNLEEQFKERLALYNNNNRMDTCVVRNTDDIKACGMAIGNQSMVNNPDNYKYLIGKAWKNIGISKTANGSKISVYYLGNSTPTENGGNTTNLPTNTTNNARFASYA
notes: Engineered polypeptide derived from the H. pylori VacA s1m1 family, expressed in CHO or HEK cells and purified
B2: human TGFβ receptor 1 (receptor, UniProt P36897 34-126, looked up)
chain: LQCFCHLCTKDNFTCVTDGLCFVSVTETTDKVIHNSMCIAEIDLIPRDRPFVCAPSSKTGSVTTTYCCNQDHCNKIELPTTVKSSPGLGPVEL
notes: Immobilised on a CM5 sensor by direct amine coupling; also called TGFβ R1; TGF-bR1

Legend:
human TGFβ receptor 2 [1] = target: T1, human TGFβ receptor 2 (human, UniProt P37173 23-166, limits assumed); experiment: SPR (Biacore T200), TGFβ R2 amine-coupled on CM5, equilibrium model
T1 construct: Immobilised on a CM5 sensor by direct amine coupling; also called TGFβ R2; TGFB-R2
T1 sequence (P37173 23-166 limits assumed): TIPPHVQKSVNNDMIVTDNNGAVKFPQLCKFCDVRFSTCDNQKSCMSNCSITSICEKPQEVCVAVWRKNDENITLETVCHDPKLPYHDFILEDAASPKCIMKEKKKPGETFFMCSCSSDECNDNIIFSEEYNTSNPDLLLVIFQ

human TGFβ receptor 2 [2] = target: T1, human TGFβ receptor 2; experiment: SPR (Biacore T200), TGFβ R2 amine-coupled on CM5, multi-cycle, two-state kinetic model
[3] = target: B1; experiment: SPR (Biacore T200), TGFβ R1 amine-coupled on CM5, multi-cycle, two-state kinetic model
[4] = target: B1; experiment: SPR (Biacore T200), TGFβ R1 amine-coupled on CM5, equilibrium model

Binder | Kd (human TGFβ receptor 2 [1]) | Kd (human TGFβ receptor 2 [2]) | koff (human TGFβ receptor 2 [2]) | kon (human TGFβ receptor 2 [2]) | Kd [3] | koff [3] | kon [3] | Kd [4]
B1 | 5.61 µM | 5.07 µM | 6670 s⁻¹ | 1.08e+09 M⁻¹ s⁻¹ |  |  |  | 
B2 |  |  |  |  | 2.31 µM | 0.603 s⁻¹ | 220000 M⁻¹ s⁻¹ | 2.9 µM
